Experimental data from publication PMC4503813, “The molecular and structural bases for the association of complement C3 mutations with atypical hemolytic uremic syndrome” (Molecular Immunology, 2015).
Each block holds one molecule with its values, some of them ahead of it.

Assays:
[1] = biological target: C3b_(R161W) (human) (UniProt P01024)
[2] = biological target: C3b_(R592W) (human) (UniProt P01024)
[3] = biological target: C3b_(R161W) (human) (UniProt P01024); test: SPR; Biacore T100, CM5 chip; C3b surface brought to 1500 RU by thioester deposition (FB and FD with Mg2+ to form convertase, then mutant or wt C3 as substrate); sMCP 0.078-5 μM flowed 90 s, 300 s dissociation; 25 °C, 20 μl/min, HBS-EP; steady-state affinity analysis
[4] = biological target: C3b_(R592W) (human) (UniProt P01024); test: as above
[5] = biological target: wild-type C3b (human) (UniProt P01024); test: as above
[6] = biological target: C3b_(I1157T) (human, UniProt P01024 749-1663; P01024 749-1663, I1157T); test: as above; conditions: both partners purified
[7] = biological target: C3b_(R161W) (human) (UniProt P01024); test: SPR; Biacore T100, CM5 chip; C3b immobilised (400 RU, amine coupling); FH 0.07-4.18 μM flowed 180 s, 300 s dissociation; 25 °C, 20 μl/min, HBS-EP; steady-state affinity analysis
[8] = biological target: C3b_(R592W) (human) (UniProt P01024); test: as above
[9] = biological target: wild-type C3b (human) (UniProt P01024); test: as above
[10] = biological target: C3b_(I1157T) (human, UniProt P01024 749-1663; P01024 749-1663, I1157T, C3b state: beta and alpha' chains disulfide-linked. Thioester (Cys1010-Gln1013) opened: hydrolysed in trypsin-generated C3b, or covalently attached to the chip via thioester for MCP SPR. Plasma glycop); test: as above; conditions: both partners purified
Sequence of C3b_(I1157T) (human, UniProt P01024 749-1663; P01024 749-1663, I1157T, C3b state: beta and alpha' chains disulfide-linked. Thioester (Cys1010-Gln1013) opened: hydrolysed in trypsin-generated C3b, or covalently attached to the chip via thioester for MCP SPR. Plasma glycop) (P01024 749-1663, stated change not applied, chain 1 of 2): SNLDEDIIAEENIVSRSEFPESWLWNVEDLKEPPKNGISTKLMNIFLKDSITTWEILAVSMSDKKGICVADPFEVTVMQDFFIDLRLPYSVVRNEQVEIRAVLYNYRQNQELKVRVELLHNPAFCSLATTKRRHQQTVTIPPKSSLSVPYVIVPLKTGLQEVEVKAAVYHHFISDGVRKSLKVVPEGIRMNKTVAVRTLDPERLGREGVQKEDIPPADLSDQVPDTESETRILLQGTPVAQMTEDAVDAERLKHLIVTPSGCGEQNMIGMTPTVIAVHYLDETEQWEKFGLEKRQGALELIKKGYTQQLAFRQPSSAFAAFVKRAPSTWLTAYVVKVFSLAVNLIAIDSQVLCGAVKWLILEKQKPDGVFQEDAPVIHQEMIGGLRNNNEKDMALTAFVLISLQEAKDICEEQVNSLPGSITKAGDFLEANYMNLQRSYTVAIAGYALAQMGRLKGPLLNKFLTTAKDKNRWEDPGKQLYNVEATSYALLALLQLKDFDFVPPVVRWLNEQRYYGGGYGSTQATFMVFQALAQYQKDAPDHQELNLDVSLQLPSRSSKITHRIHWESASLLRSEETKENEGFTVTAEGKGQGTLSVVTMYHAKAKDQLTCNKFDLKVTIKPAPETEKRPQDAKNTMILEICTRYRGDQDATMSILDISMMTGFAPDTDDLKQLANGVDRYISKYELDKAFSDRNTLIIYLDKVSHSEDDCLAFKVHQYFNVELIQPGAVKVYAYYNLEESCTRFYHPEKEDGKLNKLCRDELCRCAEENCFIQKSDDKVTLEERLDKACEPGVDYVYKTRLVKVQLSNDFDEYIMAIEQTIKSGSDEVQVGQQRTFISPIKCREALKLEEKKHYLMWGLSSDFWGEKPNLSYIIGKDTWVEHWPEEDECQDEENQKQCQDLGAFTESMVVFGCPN
Sequence of C3b_(I1157T) (human, UniProt P01024 749-1663; P01024 749-1663, I1157T, C3b state: beta and alpha' chains disulfide-linked. Thioester (Cys1010-Gln1013) opened: hydrolysed in trypsin-generated C3b, or covalently attached to the chip via thioester for MCP SPR. Plasma glycop) (P01024 749-1663 I1157T, chain 2 of 2): as the sequence (P01024 749-1663, stated change not applied, chain 1 of 2) above, with I409T counted along it

Sequence of C3b_(I1157T) (human, UniProt P01024 749-1663; P01024 749-1663, I1157T) (P01024 749-1663, stated change not applied, chain 1 of 2): as the sequence (P01024 749-1663, stated change not applied, chain 1 of 2) above
Sequence of C3b_(I1157T) (human, UniProt P01024 749-1663; P01024 749-1663, I1157T) (P01024 749-1663 I1157T, chain 2 of 2): as the sequence (P01024 749-1663, stated change not applied, chain 1 of 2) above, with I409T counted along it

FI-mediated cleavage of C3b with sMCP as cofactor, purified proteins in solution, 0-10 min at 37 °C; percent of C3b cleaved after 10 min (wt almost completely cleaved) [1]: 70%
FI-mediated cleavage of C3b with sMCP as cofactor, purified proteins in solution, 0-10 min at 37 °C; percent of C3b cleaved after 10 min (wt almost completely cleaved) [2]: 70%
Kd [3]: 930 nM
Kd [4]: 710 nM
Kd [5]: 570 nM
Molecule: soluble recombinant membrane cofactor protein (sMCP) (from UniProt P15529 35-286) (domain or fragment)

Kd [6]: 940 nM
B1: soluble recombinant membrane cofactor protein (sMCP) (domain or fragment)
chain: CEEPPTFEAMELIGKPKPYYEIGERVDYKCKKGYFYIPPLATHTICDRNHTWLPVSDDACYRETCPYIRDPLNGQAVPANGTYEFGYQMHFICNEGYYLIGEEILYCELKGSVAIWSGKPPICEKVLCTPPPKIKNGKHTFSEVEVFEYLDAVTYSCDPAPGPDPFSLIGESTIYCGDNSVWSRAAPECKVVKCRFPVVENGKQISGFGKKFYYKATVMFECDKGFYLDGSDTIVCDSNSTWDPPVPKCLKV
notes: membrane cofactor protein (MCP, CD46), the first four short consensus repeats (SCR1-4); also called CD46; recombinant soluble MCP; source: recombinant; gift from Prof; Susan Lea, Oxford University

Kd [7]: 2390 nM
Kd [8]: 2450 nM
Kd [9]: 960 nM
Kd [10]: 1420 nM
B2: factor H (natural protein, human, UniProt P08603 19-1231, looked up)
chain: EDCNELPPRRNTEILTGSWSDQTYPEGTQAIYKCRPGYRSLGNVIMVCRKGEWVALNPLRKCQKRPCGHPGDTPFGTFTLTGGNVFEYGVKAVYTCNEGYQLLGEINYRECDTDGWTNDIPICEVVKCLPVTAPENGKIVSSAMEPDREYHFGQAVRFVCNSGYKIEGDEEMHCSDDGFWSKEKPKCVEISCKSPDVINGSPISQKIIYKENERFQYKCNMGYEYSERGDAVCTESGWRPLPSCEEKSCDNPYIPNGDYSPLRIKHRTGDEITYQCRNGFYPATRGNTAKCTSTGWIPAPRCTLKPCDYPDIKHGGLYHENMRRPYFPVAVGKYYSYYCDEHFETPSGSYWDHIHCTQDGWSPAVPCLRKCYFPYLENGYNQNYGRKFVQGKSIDVACHPGYALPKAQTTVTCMENGWSPTPRCIRVKTCSKSSIDIENGFISESQYTYALKEKAKYQCKLGYVTADGETSGSITCGKDGWSAQPTCIKSCDIPVFMNARTKNDFTWFKLNDTLDYECHDGYESNTGSTTGSIVCGYNGWSDLPICYERECELPKIDVHLVPDRKKDQYKVGEVLKFSCKPGFTIVGPNSVQCYHFGLSPDLPICKEQVQSCGPPPELLNGNVKEKTKEEYGHSEVVEYYCNPRFLMKGPNKIQCVDGEWTTLPVCIVEESTCGDIPELEHGWAQLSSPPYYYGDSVEFNCSESFTMIGHRSITCIHGVWTQLPQCVAIDKLKKCKSSNLIILEEHLKNKKEFDHNSNIRYRCRGKEGWIHTVCINGRWDPEVNCSMAQIQLCPPPPQIPNSHNMTTTLNYRDGEKVSVLCQENYLIQEGEEITCKDGRWQSIPLCVEKIPCSQPPQIEHGTINSSRSSQESYAHGTKLSYTCEGGFRISEENETTCYMGKWSSPPQCEGLPCKSPPEISHGVVAHMSDSYQYGEEVTYKCFEGFGIDGPAIAKCLGEKWSHPPSCIKTDCLSLPSFENAIPMGEKKDVYKAGEQVTYTCATYYKMDGASNVTCINSRWTGRPTCRDTSCVNPPTVQNAYIVSRQMSKYPSGERVRYQCRSPYEMFGDEEVMCLNGNWTEPPQCKDSTGKCGPPPPIDNGDITSFPLSVYAPASSVEYQCQNLYQLEGNKRITCRNGQWSEPPKCLHPCVISREIMENYNIALRWTAKQKLYSRTGESVEFVCKRGYRLSSRSHTLRTTCWDGKLEYPTCAKR
notes: complement factor H, human, from plasma; also called FH; CFH
